Results: paper PMC11044963 (2024)
Where no end group is shown, it is not given here. The star is where a group is joined. FITC = O=C1OC2(c3ccc(O)cc3Oc3cc(O)ccc32)c2ccc(NC(=S)*)cc21

B1: FITC-labeled CCT5 peptide (peptide)
peptide: {FITC}-IRKPGESEE
B2: FITC-labeled MAGEA3 peptide (peptide)
peptide: {FITC}-LHEWVLREGEE
B3: unlabeled MAGEA3 peptide (peptide)
peptide: LHEWVLREGEE
B4: unlabeled CCT5 peptide (peptide)
peptide: IRKPGESEE

Columns and labels:
[1] = target: DDB1–DCAF12–DDA1 complex (human | , UniProt Q5T6F0 1-453; Q5T6F0 1-453; Q9BW61 1-102); experiment: FP
[2] = target: biotinylated DCAF12 (Δ1–78) (human, UniProt Q5T6F0 79-453, biotin); experiment: SPR

Binder | Kd [1] | koff [2]
B1 | 130 nM | –
B2 | 60 nM | –
B3 | – | 0.06 s⁻¹
B4 | – | 0.017 s⁻¹
